Assay results from PMC9160049, “Cryo-EM structures of Gid12-bound GID E3 reveal steric blockade as a mechanism inhibiting substrate ubiquitylation” (Nature Communications, 2022).

Legend:
[1] = molecular target: Chelator-GID^SR4 (Gid7-Gid4-Gid5-Gid1-Gid8-Gid2-Gid9), Twin-Strep at the C-terminus of Gid8 (S. cerevisiae) (UniProt P53076); assay: cryo-EM structure; Cage-GID^SR4 prepared without Gid12, co-expressed in Hi5 cells and purified; 19.8 Å map fitted with three Chelator-GID^SR4 models
[2] = molecular target: Gid12-Chelator-GID^SR4 (Gid12-Gid7-Gid4-Gid5-Gid1-Gid8-Gid2-Gid9), Twin-Strep at the C-terminus of Gid8 (S. cerevisiae) (UniProt Q12027); assay: cryo-EM structure; maps of Gid12-GID^SR4 (9.8 Å), Gid12-Chelator-GID^SR4 (19.4 Å) and Gid12-Cage-GID^SR4 (20.6 Å), complexes co-expressed in Hi5 cells and purified; docked with Gid12-SRS and prior structures
[3] = molecular target: PHSVTP-Fbp1 (Fbp1 with its N-terminus exchanged to Mdh2 degron) (S. cerevisiae) (UniProt P09201); assay: cryo-EM structure; purified Cage-GID^SR4 at 1 mg/ml with fivefold molar excess of purified PHSVTP-Fbp1 added directly before grid preparation; 12.2 Å; 25 mM HEPES pH 7.5, 50 mM NaCl, 5 mM DTT
[4] = molecular target: T1, 3×HA-Gid4 (endogenously N-terminally HA-tagged Gid4) (S. cerevisiae (endogenous in BY4741), UniProt P38263 1-362); assay: affinity purification with mass spectrometry; 3×HA-Gid4 on anti-HA resin, eluted with HA peptide, from BY4741 GID12-9×cMYC lysate; glycolytic conditions, ethanol starvation for 16 h or carbon recovery; iBAQ quantification; details: partners not purified
T1 construct: Gid4 (Vid24), S. cerevisiae, tagged at the endogenous locus; source: endogenous locus, BY4741 GID12-9×cMYC::kanMX4, 3×HA-GID4 yeast, in lysate; not shown: 3×HA, N-terminal, kept
T1 sequence (looked up): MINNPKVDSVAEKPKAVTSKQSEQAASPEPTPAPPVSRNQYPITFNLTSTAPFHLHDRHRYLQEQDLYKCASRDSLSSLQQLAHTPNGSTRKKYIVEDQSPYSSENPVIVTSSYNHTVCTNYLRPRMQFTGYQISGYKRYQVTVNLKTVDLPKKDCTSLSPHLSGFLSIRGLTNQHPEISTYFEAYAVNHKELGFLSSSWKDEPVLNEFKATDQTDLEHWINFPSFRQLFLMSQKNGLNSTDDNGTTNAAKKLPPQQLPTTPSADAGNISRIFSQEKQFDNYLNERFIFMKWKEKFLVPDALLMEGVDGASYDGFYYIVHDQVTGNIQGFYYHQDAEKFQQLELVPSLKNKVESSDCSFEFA

[5] = molecular target: the molecule itself; assay: cryo-EM structure; purified Chelator-GID^SR4 at 0.6 mg/ml with threefold molar excess of purified Mdh2-6×His added directly before grid preparation; 18.9 Å; 25 mM HEPES pH 7.5, 150 mM NaCl, 5 mM DTT

Chelator-GID^SR4 (Gid7-Gid4-Gid5-Gid1-Gid8-Gid2-Gid9), Twin-Strep at the C-terminus of Gid8, P53076 1-958; Q12508 1-421; P38263 1-362; P40547 1-921; P25569 1-745; P40208 1-455; P40492 1-516
stoichiometry N [1]: 3

Gid12-Chelator-GID^SR4 (Gid12-Gid7-Gid4-Gid5-Gid1-Gid8-Gid2-Gid9), Twin-Strep at the C-terminus of Gid8, Q12027 1-708; P53076 1-958; Q12508 1-421; P38263 1-362; P40547 1-921; P25569 1-745; P40208 1-455; P40492 1-516
stoichiometry N [2]: 3

PHSVTP-Fbp1 (Fbp1 with its N-terminus exchanged to Mdh2 degron) (from UniProt P09201 1-348) (enzyme)
stoichiometry N [3]: 4

B1: Gid12-9×cMYC (natural protein, S. cerevisiae (endogenous in BY4741), UniProt Q12027 1-708, looked up)
chain: MATGRIQFAVSTPCNTKGKPSGYRLFEFKNDRLALVPSERGCTKVDVNANIQAFCYLRPNGRDTSISPDATHILDSCDYMVLAKSNGFIEIISNYQYKIKNGLRLAPSYILRCTPEDFESNFFSDYMIAGLEYSQGLLYCCMCSGRIYVFVMNLPTDYIQYKNMYNPMFPDCFFKVHHDNNTTHSSEEEKLFEGSTRYTGRSCSKHICYFLLPIEPSHLRSSPVVSSFCNMYQGLPIYRPSMYLHIERGISTFHINPLDRFCFMTVSPRSPLFIRKIILPLTYVTFLSTFISLKNSIQGDTCGEILSWDNVAQQNGFGSLFSWISNKFTFDTDIINSTIWDDIVKYSGTGMLDSGIVWKQRQGHAKDDIYELFHTQDMLGSSRRNSSFSTASSEPRPLSRRRRESFQALTRDAFRERMDVPCSTKWELDSFIRGLRRNTFMVDFEIVEKISHRNGNDGVNEDDNTTDESDETMTSFLTDNYKKMDIVCIDHFVTLSAFRPRYYDEPIIKIDSLSNKNGSENGTNEEEWAESQMKVDGQVIDDETAQFKQALGNLCSFKKLFMLDDSLCFILDTHGVLLINRFEIKNTKNLLRNSKDTIRIIPHDFGLINDTIVIINDIDVGTDNVCALTFHLVVTSMAGEITVLKGEFFKNCRLGRIKLCDSLKLNRKDRFVDKLALIDYDGLNAQKRRLDYDEKDLYTFIVKKVKRD
notes: Gid12 (Ipf1, YDL176W), S. cerevisiae, tagged at the endogenous locus; The strain name is written GID12-9×cMYC; source: endogenous locus, BY4741 GID12-9×cMYC::kanMX4, 3×HA-GID4 yeast, in lysate
ratio of Gid12 to Gid4 in the Gid4 immunoprecipitate (iBAQ), glycolytic growth conditions [4]: ~0.2 Gid12:Gid4
stoichiometry of Gid12 to Gid4 in the Gid4 immunoprecipitate (iBAQ), gluconeogenic growth conditions [4]: ~1 Gid12:Gid4

B2: Mdh2-6×His (enzyme, S. cerevisiae, UniProt P22133 2-377, looked up)
chain: PHSVTPSIEQDSLKIAILGAAGGIGQSLSLLLKAQLQYQLKESNRSVTHIHLALYDVNQEAINGVTADLSHIDTPISVSSHSPAGGIENCLHNASIVVIPAGVPRKPGMTRDDLFNVNAGIISQLGDSIAECCDLSKVFVLVISNPVNSLVPVMVSNILKNHPQSRNSGIERRIMGVTKLDIVRASTFLREINIESGLTPRVNSMPDVPVIGGHSGETIIPLFSQSNFLSRLNEDQLKYLIHRVQYGGDEVVKAKNGKGSATLSMAHAGYKCVVQFVSLLLGNIEQIHGTYYVPLKDANNFPIAPGADQLLPLVDGADYFAIPLTITTKGVSYVDYDIVNRMNDMERNQMLPICVSQLKKNIDKGLEFVASRSASS
notes: Mdh2 (malate dehydrogenase), S. cerevisiae; The name is written Mdh2-6×His; also called malate dehydrogenase; source: purified
stoichiometry N [5]: 2
